This assay has as its target rabbit skeletal muscle α-actin (rabbit, UniProt P68135 1-377). The assay can be described thus: SPR; BIACORE 3000; actin (10 µg/ml) amine-coupled to a CM5 chip, 1500-1800 RU; running buffer 10 mM HEPES pH 7.4, 150 mM NaCl, 0.005% tween 20; 25°C, 40 µl/min; LL-37 0-500 nM, 1:1 Langmuir model; sLL-37 0-2500 nM, steady state affinity model. As to conditions: both partners purified. (SPR reads the build-up and loss of mass on a sensor chip optically.)

Among the data in paper PMC3506534, “LL-37 Induces Polymerization and Bundling of Actin and Affects Actin Structure” (PLoS ONE, 2012) are Kd values, retold here.

A word on the Kd: it is the equilibrium constant for the complex coming apart. A high value points to a looser complex.

B1: scrambled LL-37 (peptide)
peptide: GLKLRFEFSKIKGEFLKTPEVRFRDIKLKDNRISVQR
notes: scrambled order of the residues of LL-37; same net number of positive charges; also called sLL-37; source: bought: Genemed Synthesis Inc; purified by HPLC, purity greater than 90%
On to B1, for which the dissociation constant (Kd) was determined as 138 µM.
